The record followed here is patent publication US20150056210A1 (ROTTAPHARM BIOTECH S R L, published 2015).

For experiment [1], the target named is T1, Spacer-GST (human).
T1 construct: also called recombinant Spacer-ADAMTS-5-GST protein
Description: ELISA, Spacer-GST coated at 10 µg/mL, scFv in solution, anti-V5 detection. As for the experimental part:
FIG. 3. ELISA reactivity of isolated anti-Sp_ADAMTS-5 scFvs with Spacer-GST and GST negative control. Spacer-GST and GST antigens were coated at 10 μg/mL. […] The mean absorbance at 450 nm of the experiments performed in duplicate wells is shown with SD indicated by the bars.
Nunc Maxi-Sorp Immunoplate was coated with […] Sp_ADAMTS-5-GST and GST at 10 μg/mL in coating buffer (100 mM Na₂CO₃ pH 9.6). Plate was incubated overnight at 4° C. next day, the unbound antigens were discarded and plate was washed 3× with PBS. Non-specific binding was blocked by adding […] of 3% MPBS (3% fat free milk in PBS). Plate was incubated for 1 h at RT. Plate was washed 3×TPBS (0.1% Tween20 in PBS) and 3×PBS. 100 μL of serial dilution of anti-Sp_ADAMTS-5scFv (0.5-50 μg/mL) in 3% MPBS was added to appropriate wells. Then plate was incubated for 2 h at RT. After washing with 3×TPBS and 3×PBS, 100 μL of anti-V5 antibody (Invitrogen) diluted 1:5000 in 3% MPBS was added to each well. Plate was incubated for 1 h and 30 min at RT. After washing with 3×TPBS and 3×PBS 100 μL of anti-mouse HRP (DAKO) diluted 1:2000 in 3% MPBS was added to each well. Plate was incubated for 1 h at RT. After washing with 3×TPBS and 3×PBS 80 μL of TMB (Sigma) was added. Plate was incubated in dark chamber until samples reach the desired signal. 80 μL of stopping solution (500 mM H₂SO₄) was added to each well before reading. Data were collected measuring OD(450 nm) by LD 400 Luminescence Detector (Beckman Coulter).
On the technique in general: In an ELISA, binding on a coated surface is turned into a signal by an enzyme label.

Experiment [2] addresses T1, Spacer-GST. Description: sandwich ELISA with Spacer-GST, data not shown.
Experiment [3] deals with T1, Spacer-GST. The experiment can be described thus: SPR (Biacore X-100), CRB0017_IgG4 immobilised on CM5 chip, Spacer-GST in solution, KD1.
The target of experiment [4] is T1, Spacer-GST. Description: SPR (Biacore), Spacer-GST immobilised, CRB0017_IgG4 in solution, bivalent binding model, KD2, data not shown. For orientation: Surface plasmon resonance follows binding to a sensor surface in real time, without labels.

T1 sequence (chain, as listed by the source limits assumed): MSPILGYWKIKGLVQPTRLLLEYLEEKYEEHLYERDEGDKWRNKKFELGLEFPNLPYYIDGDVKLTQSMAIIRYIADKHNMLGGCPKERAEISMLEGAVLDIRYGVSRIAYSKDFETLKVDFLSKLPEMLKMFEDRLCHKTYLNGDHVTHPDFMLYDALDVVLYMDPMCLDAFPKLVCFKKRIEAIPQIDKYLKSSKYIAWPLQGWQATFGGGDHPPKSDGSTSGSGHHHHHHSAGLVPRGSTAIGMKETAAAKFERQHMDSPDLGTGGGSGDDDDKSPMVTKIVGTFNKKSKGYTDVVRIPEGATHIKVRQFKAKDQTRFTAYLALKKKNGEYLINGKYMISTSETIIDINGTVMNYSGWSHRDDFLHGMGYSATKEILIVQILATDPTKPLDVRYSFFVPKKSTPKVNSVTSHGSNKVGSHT

B1: CRB0019 scFv (scFv)
scFv: DIVMTQSHKFMSTSEGDRVSITCKASQDVGTAVAWYQQKPGQSPKLLIYWASTRHTGVPDRFTGSGSGTDFTLTISNVQSEDLADYICQQYCSHPYTFGAGTKLEIKRSGGSTSGSGKPGSGEGSRGTQVQLQQSGAEPVKPGASVKLSCTASGFNIKDTYMHWVKQRPEQGLEWIGRIDPAHGRTKYDPKFQGKATITADTSSNTAYLQLSSLSSEDTAVYYCAFYSYAIDYWGQGTSVTVSS
notes: VP16 fusion in the yeast selection; also called clone 14
Take B1: in the experiment with Spacer-GST [1], the binding result is “binds”.

B2: CRB0094 scFv (scFv)
scFv: QSVLTQPPSASGSPGQSVTISCTGTSSDVGGYNYVSWYQQHPGKAPKLLIYDVSNRPSGVSSRFSGSKSGNSASLTISGLQAEDEADYYCSSYTRRSTLEFGGGTKLTVLSGGSTSGSGKPGSGEGSSGTQVQLQQWGAGLLKPSGTLSLTCAVYGGSFSGYYWSWIRQPPGKGLEWIGEINHSGSTNYNPSLKSRVTISVDTSKNQFSLKLSSVTAADTAVYYCARTIWSTRHDFWSGYYSSNWFDPWGQGTLVTVSS
notes: VP16 fusion in the yeast selection; also called clone 48B
On to B2, for which the binding result with Spacer-GST [1] is recorded as “binds”.

B3: CRB0017 scFv (scFv)
scFv: DIVITQDELSNPVTSGESVSISCRSSKSLLYKDGKTYLYWFLQRPGQSPQLPIYLMSTRASGVSDRFSGSGSGTDFTLEISRVKAEDVGVYYCQQLVEYPYTFGGGTKLEIKRSGGSTRGSGKPGSGEGSSGTQVQLQQSGAELAKPGASVKMSCKASGYTFTSYWMHWVKQRPGQGLEWIGYINPSTGYTEYNQKFKDKATLTADKSSSTAYMQLGSLTSEDSAVYYCARGGYDDLGYWGQGTTLTVSS
notes: detected in ELISA with an anti-V5 antibody, tag not described; also called clone M6
On to B3, for which the binding result in the experiment with Spacer-GST [1] was “binds”.

B4: CRB0122 scFv (scFv)
scFv: QVQLQESGGGLVRPGGSLRLSCAASGFTFSSYAMTWVRQAPGKGLEWVSAISGSGDSTYYADSVKGRFTISRDNSKNTLYLQMDSLRVEDTAVYYCARDRDLLHKDGFDIWGQGTMVTVSSSGGSTSGSGKPGSGEGSSGTQSVLTQPPSASASLGASVTLTCTLSSGYSNYKVDWYQQTPGKGPRFVMRVGTGGTVGSKGDGIPDRFSVLGSGLNRYLIIKNIQEEDETDYHCGADHGSGSNFVYVFGSGTKVTVL
notes: VP16 fusion in the yeast selection; also called clone S39
With B4, the binding result with Spacer-GST [1] is recorded as “binds”.

B5: CRB0092 scFv (scFv)
scFv: QSVVTQPPSVSGAPGQRVTISCTGSSSNIGAGYDVHWYQQLPGTAPKLLIYGNDNRPSGVPDRFSGSKSGTSASLAITGLQAEDEADYYCQSYDNSLSGYAVFGGGTQLTVLSGGSTSGSGKPGSGEGSSGTQVQLVESGGGLVQPGGSLRLSCAASGFRFSSHDMHWVRQVPGKGLEWVSRIGTVGDTYYADSVKGRFTISRDNSKNTLFLQMNSLGAEDTAVYYCARDGTRYCSRTSCHSGYYYYGMDVWGQGTTVTVSS
notes: VP16 fusion in the yeast selection; also called clone C21
Take B5: the binding result with Spacer-GST [1] was “binds”.

B6: CRB0018 scFv (scFv)
scFv: DIVMTQSPASLAVSQGQRATISCRASESVDSYGNSFMHWYQQKPGQPPKLPIYLASNLESGVPARFSGSGSRTDFTLTIDPVEADDAATYYCQQNNEELTFGAGTKLELKRSGGSTSGSGKPGSSEGSSGTEVKLLESGGGLVQPGGSLKLSCTTSGFDFSRYWMSWVRQAPGKGLEWIGEINPDSSTINYTPSLKDKFIISRDNAKNTLYLQMSKVRSEDTALYYCARRSYWYFDVWGAGTSVTVSS
notes: VP16 fusion in the yeast selection; also called clone 7A (mSPLINT)
With B6, the binding result with Spacer-GST [1] was “binds”.

B7: CRB0102 scFv (scFv)
scFv: EVQLVESGSDVKKPGASVRVSCKVSGYRLTEYPIHWVRQAPGKGLEYMGGFDLENGVTKAAPRFRGRFTMTEDTSTDSVYMELKSLTSEDTAVYYCVKGPGYGALVTSFTSWGLGTLVTVSSSGGSTSGSGKPGSGEGSSGTETTLTQSPAFMSATPGDKIYISCKASQDIDDDMNWYQQKPGEAAIFIIQEATTLVPGIPPRFSGSGYGTDFTLTINNMESEDAAYYFCPQQDNVPLTFGGGTKVDIK
notes: VP16 fusion in the yeast selection; also called clone 15A
Consider B7, for which, in the experiment with Spacer-GST [1], the binding result is “binds”.

B8: CRB0123_IgG4 (antibody, V domains shown)
VH: QVQLQESGGGVVQPGRSLRLSCAASGFTFSGYGMNWVRQAPGTGLEWVATISFDGTDKYYADSVKGRFTISRDNAENTLYLQMNSLRAEDMAVYYCARDWSYAMDVWGQGTMVTVSS
VL: DIQMTQSPSSVSASVGDRVTITCRPSQGIGKYSAWYQQKPGKAPELPIYLASTLQSGVPSRFSDSGSGTEFTLTISSLQPEDFATYYCLQRNTYPWTFGQGTKVEIK
notes: also called mAb CRB0123; monoclonal antibody CRB0123
For the molecule B8, the binding result with Spacer-GST [2] is reported as “binds”.

B9: CRB0091 scFv (scFv)
scFv: DIVMTQSPSSLSASVGDRVTITCRASQAIGNDLAWYQQRPGKAPKRLIYGASTLSSGVPSRFSGSGSGTEFTLTISSLQPDDFATYYCQQYNNFPYTFGLGTKVEIKSGGSTSGSGKPGSGEGSSGTQVQLQQWGAGLLKPSETLSLTCAVHGGSFSGNFWSWVRQHPGKGLEWIGEVNHRGSATYNPSLKSRVTMSVDTSKNQFSLQLSSVTAADTAVYYCARKLPRRRAEDRPSSLRPFDYWGQGTLVTVSS
notes: VP16 fusion in the yeast selection; also called clone 7A (huSPLINT_09)
Turning to B9, the binding result in the experiment with Spacer-GST [1] is “binds”.

B10: CRB0123 scFv (scFv)
scFv: QVQLQESGGGVVQPGRSLRLSCAASGFTFSGYGMNWVRQAPGTGLEWVATISFDGTDKYYADSVKGRFTISRDNAENTLYLQMNSLRAEDMAVYYCARDWSYAMDVWGQGTMVTVSSSGGSTSGSGKPGSGEGSSGTDIQMTQSPSSVSASVGDRVTITCRPSQGIGKYSAWYQQKPGKAPELPIYLASTLQSGVPSRFSDSGSGTEFTLTISSLQPEDFATYYCLQRNTYPWTFGQGTKVEIK
notes: VP16 fusion in the yeast selection; also called clone S50
For B10, in the experiment with Spacer-GST [1], the binding result is recorded as “binds”.

B11: CRB0124 scFv (scFv)
scFv: QVQLVQSGSDVKKPGASVRVSCKVSGYRLTEYPIHWVRQAPGKGLEYMGGFDLENGVTKAAPRFRGRFTMTEDTSTDSVYMELKSLTSEDTAVYYCVKGPGYGALVTSFTSWGLGTTVTVSSSGGSTSGSGKPGSGEGSSGTSYVLTQPPSVSVSPGQTASITCSGDKLEDKYACWYQQKPGQSPVLVIYHDYKRPSGIPERFSGSNSGNTATLTISRVEGGDEADYYCQVWDSGSDDQVFGGGTKLTVL
notes: VP16 fusion in the yeast selection; also called clone S53a
Turning to B11, the binding result with Spacer-GST [1] is given as “binds”.

B12: monoclonal antibody CRB0102 (antibody, V domains shown)
VH: EVQLVESGSDVKKPGASVRVSCKVSGYRLTEYPIHWVRQAPGKGLEYMGGFDLENGVTKAAPRFRGRFTMTEDTSTDSVYMELKSLTSEDTAVYYCVKGPGYGALVTSFTSWGLGTLVTVSS
VL: ETTLTQSPAFMSATPGDKIYISCKASQDIDDDMNWYQQKPGEAAIFIIQEATTLVPGIPPRFSGSGYGTDFTLTINNMESEDAAYYFCPQQDNVPLTFGGGTKVDIK
notes: also called CRB0102 IgG4
Regarding B12, in the experiment with Spacer-GST [2], the binding result is given as “binds”.

B13: CRB0017_IgG4 (antibody, V domains shown)
VH: QVQLQQSGAELAKPGASVKMSCKASGYTFTSYWMHWVKQRPGQGLEWIGYINPSTGYTEYNQKFKDKATLTADKSSSTAYMQLGSLTSEDSAVYYCARGGYDDLGYWGQGTTLTVSS
VL: DIVITQDELSNPVTSGESVSISCRSSKSLLYKDGKTYLYWFLQRPGQSPQLPIYLMSTRASGVSDRFSGSGSGTDFTLEISRVKAEDVGVYYCQQLVEYPYTFGGGTKLEIK
notes: Chimeric IgG: murine variable domains on human constant domains (Fc from human IgG4, kappa light chain), made in CHO-S cells; also called mAb CRB0017; CRB017 IgG4
In the case of B13, the values for the Kd with Spacer-GST [3] and with Spacer-GST [4] were around 2 nM and 7 nM, respectively.
